# Measurements published in paper PMC12012478, “Roquin exhibits opposing effects on RNA stem-loop stability through its two ROQ domain binding sites”.
# T1: extROQ (Roquin-1 extended ROQ domain) (murine) (UniProt Q4VGL6)
# T1 sequence: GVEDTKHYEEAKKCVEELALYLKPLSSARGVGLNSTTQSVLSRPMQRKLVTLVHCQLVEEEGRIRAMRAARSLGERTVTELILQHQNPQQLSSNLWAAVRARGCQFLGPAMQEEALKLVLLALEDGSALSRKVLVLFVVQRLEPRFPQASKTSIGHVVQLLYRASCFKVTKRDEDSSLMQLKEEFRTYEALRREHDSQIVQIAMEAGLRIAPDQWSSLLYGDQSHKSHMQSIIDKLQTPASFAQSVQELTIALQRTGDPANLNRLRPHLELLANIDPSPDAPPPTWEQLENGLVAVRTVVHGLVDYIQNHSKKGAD
# T2: coreROQ (Roquin-1 core ROQ domain) (murine) (UniProt Q4VGL6)
# T2 sequence: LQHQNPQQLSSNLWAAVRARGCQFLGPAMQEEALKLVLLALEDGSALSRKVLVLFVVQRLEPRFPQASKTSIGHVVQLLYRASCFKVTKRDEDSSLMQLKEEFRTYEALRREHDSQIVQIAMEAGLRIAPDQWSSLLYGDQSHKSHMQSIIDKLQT
# T3: extROQ (Roquin-1 extended ROQ domain) (murine, UniProt Q4VGL6 89-404)
# T3 sequence: T1 sequence
# T4: coreROQ (Roquin-1 core ROQ domain) (murine, UniProt Q4VGL6 171-326)
# T4 sequence: T2 sequence
# Columns and labels:
# [1] = molecular target: T1, extROQ (Roquin-1 extended ROQ domain) (murine); test: optical tweezers (kinetics, koff/kon); settings: low-salt buffer, Protein/RNA buffer 150 mM NaCl, 50 mM Tris pH 7.0, 1 mM TCEP, OT in low-salt near-physiological buffer (composition not in material), EMSA 3 nM RNA, 0-20 uM …
# [2] = molecular target: T2, coreROQ (Roquin-1 core ROQ domain) (murine); test: optical tweezers (kinetics, koff/kon); settings: low-salt buffer, Protein/RNA buffer 150 mM NaCl, 50 mM Tris pH 7.0, 1 mM TCEP, OT in low-salt near-physiological buffer (composition not in material), EMSA 3 nM RNA, 0-20 uM …
# [3] = molecular target: T3, extROQ (Roquin-1 extended ROQ domain); test: hydroxyl radical footprinting; residues 62-87 protected, 88-100 more exposed; Protein/RNA buffer 150 mM NaCl, 50 mM Tris pH 7.0, 1 mM TCEP; OT in low-salt near-physiological buffer (composition not in material); EMSA 3 nM RNA, 0-20 uM protein, 6% native PAGE at 4 C; settings: protein: recombinant; tags: His tag removed by TEV (Ni IMAC; tag type implied); label: 5' fluorescein in EMSA; none stated for NMR/CD; hairpin with hexaloop and central bulge
# [4] = molecular target: T4, coreROQ (Roquin-1 core ROQ domain); test: as above; settings: protein: recombinant; tags: His tag removed by TEV (Ni IMAC; tag type implied); label: 5' fluorescein in EMSA; none stated for NMR/CD; hairpin with hexaloop and central bulge
molecule,measurement,setting,value
"GGCAGGGCUGACGUAGUUGGAGUGGUGCGGGAGGGCCUGCCAGUACCCUCCACACCGUUCUAGGUGCUGGGCUGGCUCUGGGCAGUGAGGGCAGAAUUCAGGUG [Ox40 ADE, optical tweezers construct]",Kd,[1]; extrapolated to zero force,1.67 nM
same,Kd,[2]; extrapolated to zero force,4.8 nM
"GGCAGGGCUGACGUAGUUGGAGUGGUGCGGGAGGGGCUUUCCUAUGUAUGCUAUGCAUACUACAGUGAGGGCAGAAUUCAGGUG [Ox40 CDE, optical tweezers construct]",Kd,[1]; zero force,2 nM
same,Kd,[2]; zero force,33 nM
"GCCUGCCAGUACCCUCCACACCGUUCUAGGUGCUGGGCUGGCUCUGGGC (structured_RNA) [Ox40 ADE, bulk RNA]",binding result,[3],binds
same,binding result,[4],binds
